Test results: PMC9966725, “Preclinical Evaluation of a Lead Specific Chelator (PSC) Conjugated to Radiopeptides for ^203Pb and ^212Pb-Based Theranostics” (Pharmaceutics, 2023)

What was measured:
[1] = TCMC chelator in an anti-CD37 radioimmunoconjugate; cited from earlier work
Description: Potential ambiguity in these predictions arises due to the nature of the ^212Pb decay series. The decay of ^212Pb to ^212Bi might lead to a decoupling of the progeny ^212Bi from the chelator, adding uncertainty to the biodistribution of radioactivity, especially the α-emitters (i.e., ^212Bi, ^212Po). Using particle and heavy ion transport code system (PHITS) modeling, we have shown that α-particles contribute to more than 90% of dose deposition in 10 µm diameter single cells and 1 cm diameter micro-metastasis, while the dose from β-particles becomes more significant ...

[2] = system: SSTR2-positive AR42J xenografts; assay: in vivo; set-up: species or system mice; conditions: female, athymic nude, mouse, iv, 74 kBq, 1 h
Experimental: (§1) Biodistribution of [^212Pb]Pb-PSC-PEG-T and progeny ^212Bi^3+ was determined in two animal models, including female naïve CD-1Elite mice and athymic mice bearing AR42J tumor xenografts. SSTR2-positve AR42J cells were cultured in 10% Minimum Essential Medium (MEM) supplemented with 10% fetal bovine serum (FBS), 100 units mL^−1 penicillin, and 100 units mL^−1 streptomycin 37 °C in a humidified atmosphere (5% CO2). All animal studies were performed in accordance with the Guide for the Care and Use of Laboratory Animals, according to protocols approved by the University of Iowa Animal Care and Use Committee (protocol#1122453 approved on 16 February 2022). Xenograft of AR42J tumor was developed by subcutaneous (s.c.) injection of 1 × 10^6 cells at the left shoulder of female athymic nude mice. [^212Pb]Pb-PSC-PEG-T was radiolabeled and purified as described above, and kept at room temperature away from light for 3 h before injection, to allow progeny ^212Bi to approach equilibrium before injection. Upon assay, 74 kBq [^212Pb]Pb-PSC-PEG-T (peptide mass = 5–10 pmole) were injected via tail vein (n = 2–3). Animals were euthanized at designated time points (1, 5, 24 h for naïve CD-1 mice; 1, 4 h for AR42J-bearing mice). Organs of interest and tumors were collected, rinsed, and weighed. Radioactivity of ^212Pb and ^212Bi in each sample was measured on an automated gamma counter by 238 keV and 583 keV gamma peaks, respectively. ^212Bi was purified from the generator eluate on RE2 resin and collected in pH = 6 sodium acetate as described above. Biodistribution of free ^212Bi in normal organs was determined at 2 h post injection of 74 kBq ^212Bi in naïve female CD-1 Elite mice (n = 3). Radioactivity in samples was decay corrected and data were expressed as percent injected dose per gram of tissue (%ID/g). SPECT imaging of [^203Pb]Pb-PSC-PEG-T and [^212Pb]Pb-PSC-PEG-T in female athymic nude mice bearing AR42J xenograft (n = 2) was conducted on Bioemtech Gamma-Eye Imaging system (Bioemtech, Athens, Greece) with 30–500 keV dynamic range and 1.9 mm spatial resolution. Whole body 2D-SPECT imaging of [^203Pb]Pb-PSC-PEG-T and [^212Pb]Pb-PSC-PEG-T were collected at 3 h and 24 h (n = 2) post injection of 1.8 MBq [^203Pb]Pb-PSC-PEG-T (52 MBq nmole^−1) and 3.7 MBq [^212Pb]Pb-PSC-PEG-T (20 MBq nmole^−1). SPECT images were generated by acquiring ten 30 s projections. Imaging data were reconstructed and normalized to percent of injected dose (%ID) in tumor and kidneys based on region of interest (ROI) analysis on VISUAL-Eyes software (Bioemtech, Athens, Greece). Animals were euthanized after conclusion of the study at 24 h post injection. Tumor xenografts and organs of interest were collected and weighed. Radioactivity of ^203Pb or ^212Pb was determined on automated gamma counter and normalized to %ID/g.

AR42J xenograft = assay: in vivo; set-up: species or system mice; conditions: female, athymic nude, mouse, 24 h
Experimental: as §1

[3] = Radiochemical stability of radiometal complex in saline, radio-iTLC; format: physicochemical; conditions: 37 MBq mL^-1 in saline at room temperature for 24 h, regardless of PSC-PEG-T concentration (1, 3, 5 µM)
Experimental: (§2) Using [^203Pb]Pb-PSC-PEG-T surrogate, radiochemical stability of [^203Pb]Pb-PSC-PEG-T in saline was monitored for 72 h. Similarly, single species of [^212Bi]Bi-PSC-PEG-T in saline were also monitored for 5 h (five half-lives of ^212Bi). [^203Pb]Pb-PSC-PEG-T and [^212Bi]Bi-PSC-PEG-T were radiolabeled and purified on Sep-Pak® C18 SPE columns as previously described. Next, 7.4 MBq mL^−1 of purified [^203Pb]Pb-PSC-PEG-T and [^212Bi]Bi-PSC-PEG-T were stored in saline supplemented with 5% EtOH and 1 mg mL^−1 sodium ascorbate for 72 h and 5 h, respectively, followed by analysis of radiochemical purity by radio-iTLC method. Then, radiochemical stability of [^212Pb]Pb-PSC-PEG-T and progeny [^212Bi]Bi-PSC-PEG-T were determined by radio-iTLC after storage of 37 MBq mL^−1 radiolabeled [^212Pb]Pb-PSC-PEG-T in saline for 24 h, and further confirmed by radio-HPLC analysis. In human serum, radiochemical stability of [^212Pb]Pb-PSC-PEG-T and progeny [^212Bi]Bi-PSC-PEG-T were determined after incubation of 3.7 MBq [^212Pb]Pb-PSC-PEG-T in 1 mL human serum at 37 °C for 24 h. In addition, metabolic stability of Pb-PSC-PEG-T radiopeptide in serum was determined by radio-HPLC after incubating [^203Pb]Pb-PSC-PEG-T surrogate in human serum for 55 h (five half-lives of ^212Pb). Following the incubation, serum protein was precipitated in ice-cold methanol (1:1.5 v/v) for 10 min, followed by centrifugation at 10,000× g for 10 min. The supernatant was collected and analyzed on radio-HPLC.
In radio-iTLC analysis, 0.1 M NaOAc with 1 mM DTPA was used as mobile phase for ^203Pb, ^212Pb, ^212Bi. Citric acid (0.1 M) was used as mobile phase for ^68Ga. Upon radio-iTLC analysis, 2 µL aliquot sample was spotted on the radio-iTLC strips (2 × 10 cm) and developed in the mobile phase. Radioactivity of ^203Pb and ^212Pb was measured on NaI(Tl) gamma spectroscope using 279 keV and 238 keV gamma peaks, respectively. Radioactivity of ^212Bi on radio-iTLC was measured on the Ludlum Model 3030 α-particle counter. Radio-HPLC analysis was conducted on Agilent 1260 (Agilent, Santa Clara, CA, USA). Binary mobile phases were applied to run 5–60% phase B (acetonitrile) over phase A (0.1% TFA in water) over 10 min on ZORBAX RR Eclipse XDB-C18 column (4.6 × 150 mm, 5 µm). Radioactivity of ^203Pb was measured on flow-through 105S-1 single channel radiation detector (Corroll & Ramsey, Fort Collins, CO, USA). To measure ^212Pb and ^212Bi activity on radio-HPLC, eluate was collected every 10 s on a HPLC fraction collector. Radioactivity of ^212Pb and ^212Bi in each collected eluate was measured on Cobra II automated gamma counter using 238 keV and 583 keV gamma peaks immediately after collection.

[4] = Stability of radiopeptide in saline, radio-HPLC; format: physicochemical; conditions: 24 h storage in saline, C18, fractions counted on gamma counter
Experimental: as §2, with “Following the incubation, serum protein was precipitated in ice-cold methanol (1:1.5 v/v) for 10 min, followed by centrifugation at 10,000× g for 10 min.” left out, “radio-HPLC. […]” for “radio-HPLC.”

| Compound | ^212Bi^3+ ejected from chelator [1] [%] | accumulation in adrenal glands [2] [%ID/g] | accumulation in bones [2] [%ID/g] | accumulation in kidneys [2] [%ID/g] | accumulation in liver [2] [%ID/g] | accumulation in spleen [2] [%ID/g] | activity in lungs (AR42J xenograft) [%ID/g] | ^212Pb remained in PSC-PEG-T [3] | radiochemical purity (radiometal remained incorporated as radiopeptide) [4] [%] |
| --- | --- | --- | --- | --- | --- | --- | --- | --- | --- |
| NC(=O)CN1CCN(CC(N)=O)CCN(CC(N)=O)CCN(CC(N)=O)CC1 [TCMC, 1,4,7,10-Tetrakis(carbamoylmethyl)-1,4,7,10-tetraazacyclododecane] | 16 |  |  |  |  |  |  |  |  |
| C[C@@H](O)[C@@H]1NC(=O)[C@H](CCCCN)NC(=O)[C@@H](Cc2c[nH]c3ccccc23)NC(=O)[C@H](Cc2ccc(O)cc2)NC(=O)[C@@H](NC(=O)[C@@H](Cc2ccccc2)NC(=O)CCOCCOCCNC(=O)CN2CCN(CC(=O)O)CCN(CC(N)=O)CCN(CC(=O)O)CC2)CSSC[C@@H](C(=O)N[C@H](CO)[C@@H](C)O)NC1=O [[^212Pb]Pb-PSC-PEG-T] [metal not drawn] |  | 3.6 | 1.4 | 28.1 | 0.8 | 0.6 | 0.3 | More than 99.6% | > 95 |
